Literature values as cited in PMC2666074 (Biochemistry, 2008).

Tested on: β-catenin in HEK293 cells
Settings: no detectable levels of S100A6, ref Matsuzawa and Reed (2001)

B1: Siah-1: Siah-1 overexpressed by transient transfection of pSiah-1-FLAG (protein, UniProt Q8IUQ4 1-282, looked up)
E3 ubiquitin-protein ligase …: MSRQTATALPTGTSKCPPSQRVPALTGTTASNNDLASLFECPVCFDYVLPPILQCQSGHLVCSNCRPKLTCCPTCRGPLGSIRNLAMEKVANSVLFPCKYASSGCEITLPHTEKADHEELCEFRPYSCPCPGASCKWQGSLDAVMPHLMHQHKSITTLQGEDIVFLATDINLPGAVDWVMMQSCFGFHFMLVLEKQEKYDGHQQFFAIVQLIGTRKQAENFAYRLELNGHRRRLTWEATPRSIHEGIATAIMNSDCLVFDTSIAQLFAENGNLGINVTISMC
modifications: FLAG tag
level of β-catenin upon Siah-1 transfection, in words: reduced levels of β-catenin
